From FireProtDB (doi:10.1093/protein/12.7.581)
Values joined by “and” are separate entries in the source; they are usually repeats but may differ in a detail not shown here. Equal entries are not always repeated.

B1: Alpha-lactalbumin, P00711 (parent)
chain: MMSFVSLLLVGILFHATQAEQLTKCEVFRELKDLKGYGGVSLPEWVCTTFHTSGYDTQAIVQNNDSTEYGLFQINNKIWCKDDQNPHSSNICNISCDKFLDDDLTDDIMCVKKILDKVGINYWLAHKALCSEKLDQWLCEKL

Variants of: B1
Details: Bos taurus; pH 7.4; Thermal; CD; Tris-HCl 20 mM; CaCl2 1 mM; reversible: yes(>95%); structure 1HFZ; whole UniProt chain shown

Q: Which Tm does the source give for MMSFVSLLLVGILFHATQAEQLTKCEVFRELKDLKGYGGVSLPEWVCTTFHTSGYDTQAIVQNNDSTEYGLFQINNKIWCKDDQNPHSSNICNISCDKFLDDDLTDDIMCVKKILDKVGINPWLAHKALCSEKLDQWLCEKL [Y122P] here?
A: The Tm was 55.1 °C and 56.2 °C.

Q: And the “change of melting temperature, mutant - wild type (higher = more stable)” value (“change of melting temperature, mutant” for short)?
A: The value was -1.1 °C.

Q: What about the “ddG of mutation (higher = less stable)” value of the same variant?
A: Its value is 0.22 kcal/mol.

Q: What about the “unfolding enthalpy (van 't Hoff)” value of the same variant?
A: Its value is 62.1 kcal/mol.

Q: Which “change of melting temperature, mutant” value does the source give for MMSFVSLLLVGILFHATQAEQLTKCEVFRELKDLKGYGGVSLPEWVCTTFHTSGYDTQAIVQNNDSTEYGLFQINNKIWCKDDQNPHSSNICNISCDKFLDDDLTDDIMCVKKILDKVGINAWLAHKALCSEKLDQWLCEKL [Y122A] here?
A: Its value is -10.7 °C.

Q: What about the “ddG of mutation (higher = less stable)” value of the same variant?
A: Its value is 2.39 kcal/mol.

Q: What about the “unfolding enthalpy (van 't Hoff)” value of the same variant?
A: Its value is 64.3 kcal/mol.

Q: With MMSFVSLLLVGILFHATQAEQLTKCEVFRELKDLKGYGGVSLPEWVCTTFHTSGYDTQAIVQNNDSTEYGLFAINNKIWCKDDQNPHSSNICNISCDKFLDDDLTDDIMCVKKILDKVGINYWLAHKALCSEKLDQWLCEKL [Q73A] as the variant, how does the Tm read?
A: The Tm was 54.3 °C and 56.2 °C.

Q: And the “change of melting temperature, mutant” value?
A: The value was -1.9 °C.

Q: What about the “ddG of mutation (higher = less stable)” value of the same variant?
A: The value was 0.41 kcal/mol.

Q: What about the “unfolding enthalpy (van 't Hoff)” value of the same variant?
A: Its value is 67.6 kcal/mol.

Q: For MMSFVSLLLVGILFHATQAEQLTKCEVFRELKDLKGYGGVSLPEWVCTTFATSGYDTQAIVQNNDSTEYGLFQINNKIWCKDDQNPHSSNICNISCDKFLDDDLTDDIMCVKKILDKVGINYWLAHKALCSEKLDQWLCEKL [H51A], which “change of melting temperature, mutant” value is on record?
A: The value was -11.6 °C.

Q: And the “ddG of mutation (higher = less stable)” value?
A: Its value is 2.13 kcal/mol.

Q: What about the “unfolding enthalpy (van 't Hoff)” value of the same variant?
A: Its value is 50.4 kcal/mol.

Q: What does the source list for MMSFVSLLLVGILFHATQAEQLTKCEVFRELKDLKGYGGVSLPEWVCTTFYTSGYDTQAIVQNNDSTEYGLFQINNKIWCKDDQNPHSSNICNISCDKFLDDDLTDDIMCVKKILDKVGINYWLAHKALCSEKLDQWLCEKL [H51Y]?
A: Tm: 56.5 °C; change of melting temperature, mutant - wild type (higher = more stable): 0.3 °C; unfolding enthalpy (van 't Hoff): 73.6 kcal/mol

Q: What does the source list for MMSFVSLLLVGILFHATQAEQLTKCEVFRELKDLKGYGGVSLPEWVCTTFHTSGYDTQAIVQNNDSTEYGLFQINNKIWCKDDQNPHSSNICNISCDKFLDDDLTDDIMCVKKILDKVGINYWLAHKAECSEKLDQWLCEKL [L129E]?
A: Tm: 55.1 °C and 56.2 °C; change of melting temperature, mutant - wild type (higher = more stable): -1.1 °C; ddG of mutation (higher = less stable): 0.19 kcal/mol; unfolding enthalpy (van 't Hoff): 58.6 kcal/mol

Q: Which results are given for MMSFVSLLLVGILFHATQAEQLTKCEVFRELKDLKGYGGVSLPEWVCTTFHTSGYDTQAIVQNNDSTEYGLFQINNKIWCKDDQNPHSSNICNISCDKFLDDDLTDDIMCVKKILDKVGINYWLAHKARCSEKLDQWLCEKL [L129R]?
A: Tm: 58.1 °C and 56.2 °C; change of melting temperature, mutant - wild type (higher = more stable): 1.9 °C; ddG of mutation (higher = less stable): -0.43 kcal/mol; unfolding enthalpy (van 't Hoff): 76.5 kcal/mol

Q: For MMSFVSLLLVGILFHATQAEQLTKCEVFRELKDLKGYGGVSLPEWVCTTFHTSGYDTQAIVQNNDSTEYGLFQINNKIWCKDDQNPHSSNICNISCDKFLDDDLTDDIMCVKKILDKVGINYWLAHKALCSEKLDQHLCEKL [W137H], which Tm is on record?
A: The Tm was 52.9 °C and 56.2 °C.

Q: And the “change of melting temperature, mutant” value?
A: Its value is -3.3 °C.

Q: And the “ddG of mutation (higher = less stable)” value?
A: The value was 0.6 kcal/mol.

Q: What about the “unfolding enthalpy (van 't Hoff)” value of the same variant?
A: Its value is 56.2 kcal/mol.

Q: With MMSFVSLLLVGILFHATQAEQLTKCEVFRELKDLKGYGGVSLPEWVCTTFHTSGYDTQAIVQNNDSTEYGLFQINNKIWCKDDQNPHSSNICNISCDKFLDDDLTDDIMCVKKILDKVGINYWLAHKALCSEKLDAWLCEKL [Q136A] as the variant, how does the Tm read?
A: The Tm was 52.1 °C and 56.2 °C.

Q: And the “change of melting temperature, mutant” value?
A: Its value is -4.1 °C.

Q: And the “ddG of mutation (higher = less stable)” value?
A: Its value is 0.96 kcal/mol.

Q: What about the “unfolding enthalpy (van 't Hoff)” value of the same variant?
A: The value was 73.4 kcal/mol.

Q: For MMSFVSLLLVGILFHATQAEQLTKCEVFRELKDLKGYGGVSLPEWVCTTFHTSGYDTQAIVQNNDSTEYGLFQINNKIWCKDDQNPHSSNICNISCDKFLDDDLTDDIMCVKKILDKVGINYWLAYKALCSEKLDQWLCEKL [H126Y], which Tm is on record?
A: Its Tm is 55.2 °C and 56.2 °C.

Q: What about the “change of melting temperature, mutant” value of the same variant?
A: Its value is -1 °C.

Q: And the “ddG of mutation (higher = less stable)” value?
A: The value was 0.19 kcal/mol.

Q: And the “unfolding enthalpy (van 't Hoff)” value?
A: The value was 62.9 kcal/mol.

Q: With MMSFVSLLLVGILFHATQAEQLTKCEVFRELKDLKGYGGVSLPEWVCTTFHTSGYDTQAIVQNNDSTEYGLFQINNKIWCKDDQNPHSSNICNISCDKFLDDDLTDDIMCVKKILDKVGINYWLAAKALCSEKLDQWLCEKL [H126A] as the variant, how does the Tm read?
A: Its Tm is 52.1 °C and 56.2 °C.

Q: What about the “change of melting temperature, mutant” value of the same variant?
A: Its value is -4.1 °C.

Q: What about the “ddG of mutation (higher = less stable)” value of the same variant?
A: The value was 0.79 kcal/mol.

Q: And the “unfolding enthalpy (van 't Hoff)” value?
A: The value was 60.5 kcal/mol.

Q: With MMSFVSLLLVGILFHATQAEQLTKCEVFRELKDLKGYGGVSLPEWVCTTFHTSGYDTQAIVQNNDSTEYGLFQINNKWWCKDDQNPHSSNICNISCDKFLDDDLTDDIMCVKKILDKVGINYWLAHKALCSEKLDQWLCEKL [I78W] as the variant, how does the Tm read?
A: The Tm was 51.7 °C and 56.2 °C.

Q: What about the “change of melting temperature, mutant” value of the same variant?
A: The value was -4.5 °C.

Q: And the “ddG of mutation (higher = less stable)” value?
A: Its value is 0.93 kcal/mol.

Q: What about the “unfolding enthalpy (van 't Hoff)” value of the same variant?
A: The value was 65 kcal/mol.

Q: Which Tm does the source give for MMSFVSLLLVGILFHATQAEQLTKCEVFRELKDLKGYGGVSLPEWVCTTFHTSGYDTQAIAQNNDSTEYGLFQINNKIWCKDDQNPHSSNICNISCDKFLDDDLTDDIMCVKKILDKVGINYWLAHKALCSEKLDQWLCEKL [V61A] here?
A: The Tm was 51.7 °C and 56.2 °C.

Q: What about the “change of melting temperature, mutant” value of the same variant?
A: Its value is -4.5 °C.

Q: And the “ddG of mutation (higher = less stable)” value?
A: Its value is 0.93 kcal/mol.

Q: What about the “unfolding enthalpy (van 't Hoff)” value of the same variant?
A: Its value is 64.3 kcal/mol.

Q: Which results are given for MMSFVSLLLVGILFHATQAEQLTKCEVFRELKDLKGYGGVSLPEWVCTTFHTSGYDTQAINQNNDSTEYGLFQINNKIWCKDDQNPHSSNICNISCDKFLDDDLTDDIMCVKKILDKVGINYWLAHKALCSEKLDQWLCEKL [V61N]?
A: Tm: 55.1 °C; change of melting temperature, mutant - wild type (higher = more stable): -1.1 °C; unfolding enthalpy (van 't Hoff): 67.2 kcal/mol

Q: Which “change of melting temperature, mutant” value does the source give for MMSFVSLLLVGILFHATQAEQLTKCEVFRELKDLKGYGGVSLPEWVCTTFHTSGYDTQAIGQNNDSTEYGLFQINNKIWCKDDQNPHSSNICNISCDKFLDDDLTDDIMCVKKILDKVGINYWLAHKALCSEKLDQWLCEKL [V61G] here?
A: Its value is -5.2 °C.

Q: And the “ddG of mutation (higher = less stable)” value?
A: Its value is 1.15 kcal/mol.

Q: What about the “unfolding enthalpy (van 't Hoff)” value of the same variant?
A: Its value is 68.6 kcal/mol.

Q: With MMSFVSLLLVGILFHATQAEQLTKCEVFRELKDLKGYGGVSLPEWVCTTFHTSGYDTQAIVQNNDSTEYGLFQINNKIWCKDDQNPHSSNICNISCDKFLDDDLTDDIMCVKKILDKVGINYWLAHKALCSEQLDQWLCEKL [K133Q] as the variant, how does the Tm read?
A: Its Tm is 53.5 °C and 56.2 °C.

Q: What about the “change of melting temperature, mutant” value of the same variant?
A: Its value is -2.7 °C.

Q: And the “ddG of mutation (higher = less stable)” value?
A: The value was 0.6 kcal/mol.

Q: And the “unfolding enthalpy (van 't Hoff)” value?
A: Its value is 69.5 kcal/mol.

Q: With MMSFVSLLLVGILFHATQAEQLTKCEVFRELKDLKGYGGVSLPEWVCTTFHTSGYDTQAIVQNNDSTEYGLFQINNKIWCKDDQNPHSSNICNISCDKFLDDDLTDDIMCVKKILDKVGINYWLAHKALCSEELDQWLCEKL [K133E] as the variant, how does the Tm read?
A: Its Tm is 53 °C.

Q: What about the “change of melting temperature, mutant” value of the same variant?
A: Its value is -3.2 °C.

Q: What about the “unfolding enthalpy (van 't Hoff)” value of the same variant?
A: Its value is 62.9 kcal/mol.

Q: Which Tm does the source give for MMSFVSLLLVGILFHATQAEQLTKCEVFRELKDLKGYGGVSLPEWVCTTFHTSGYDTQAIVQNNDSTEYGLFQINNKIWCKDDQNPHSSNICNISCDKFLDDDLTDDIMCVKKILDKVGINYYLAHKALCSEKLDQWLCEKL [W123Y] here?
A: The Tm was 56.2 °C.

Q: And the “ddG of mutation (higher = less stable)” value?
A: Its value is 2.44 kcal/mol.
